Data published in patent US20250011454A1 (published 2025).

Key:
Test in all cases: cell-based or functional assay
PSMA = PSMA (UniProt Q04609 44-750, limits assumed)
KLK2 [1] = target: T1, KLK2 (UniProt P20151 25-261, limits assumed)
KLK2 [2] = target: T1, KLK2; remark: listed apart in the source

Chain of PSMA (Q04609 44-750 limits assumed): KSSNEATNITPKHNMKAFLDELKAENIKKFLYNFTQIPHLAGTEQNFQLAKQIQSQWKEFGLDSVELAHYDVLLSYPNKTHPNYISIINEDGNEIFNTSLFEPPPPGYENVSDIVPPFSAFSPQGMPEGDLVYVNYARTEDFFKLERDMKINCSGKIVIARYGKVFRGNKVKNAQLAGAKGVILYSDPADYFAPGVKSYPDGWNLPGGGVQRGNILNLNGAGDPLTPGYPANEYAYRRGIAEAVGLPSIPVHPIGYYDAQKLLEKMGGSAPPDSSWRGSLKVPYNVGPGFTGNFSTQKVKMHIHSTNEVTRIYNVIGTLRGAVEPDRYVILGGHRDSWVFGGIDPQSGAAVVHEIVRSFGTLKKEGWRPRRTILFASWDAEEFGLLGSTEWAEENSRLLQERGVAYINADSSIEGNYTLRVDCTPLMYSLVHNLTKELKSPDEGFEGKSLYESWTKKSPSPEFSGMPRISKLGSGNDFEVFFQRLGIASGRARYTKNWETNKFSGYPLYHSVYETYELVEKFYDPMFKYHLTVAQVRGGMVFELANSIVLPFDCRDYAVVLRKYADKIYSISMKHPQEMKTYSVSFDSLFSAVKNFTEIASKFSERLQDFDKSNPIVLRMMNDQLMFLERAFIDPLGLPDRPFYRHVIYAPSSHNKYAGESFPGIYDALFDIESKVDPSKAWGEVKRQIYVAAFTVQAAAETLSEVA
T1 sequence (P20151 25-261 limits assumed): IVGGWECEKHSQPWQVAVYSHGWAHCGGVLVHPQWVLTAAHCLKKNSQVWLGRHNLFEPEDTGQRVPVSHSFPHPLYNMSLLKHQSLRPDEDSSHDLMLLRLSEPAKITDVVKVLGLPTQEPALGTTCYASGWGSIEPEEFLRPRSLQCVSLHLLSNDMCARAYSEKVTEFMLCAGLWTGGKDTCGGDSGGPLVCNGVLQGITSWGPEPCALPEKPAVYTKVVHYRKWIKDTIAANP

Row | Binder | In vitro ADCC killing EC50 (M), C42B cells, NK cells, 24 hour (PSMA) [M] | In vitro ADCC killing EC50 (M), C42B cells, PBMC, 6 hour (PSMA) [M] | In vitro ADCC killing EC50 (M), LNCaP cells, NK cells, 24 hour (PSMA) [M] | In vitro ADCC killing EC50 (M), LNCaP cells, PBMC, 6 hour (PSMA) [M] | EC50 (M), ADCC killing of VCaP cells by PBMC at 48 hour (KLK2 [1]) [M] | ADCC activity, cell killing of VCaP cells by PBMC (KLK2 [2]) [%]
1 | PSMB952 (antibody, V domains shown) VH: EVQLVESGGGLVQPGGSLRLSCAASGFTFSSYAMSWVRQAPGKGLEWVSAISGGIGSTYYADSVKGRFTISRDNSKNTLWLQMNSLRAEDTAVYYCAKDGVGATPYYFDYWGQGTLVTVSS VL: QSVLTQPPSVSAAPGQKVTISCSGSSSNIGINYVSWYQQLPGTAPKLLIYDNNKRPSGIPDRFSGSKSGTSATLGITGLQTGDEADYYCGTWDSSLSAVVFGGGTKLTVL | 2.45e-11 | 3.51e-10 | 4.59e-11 | 2.01e-10 | – | –
2 | PSMB956 (antibody, V domains shown) VH: EVQLVESGGGLVQPGGSLRLSCAASGFTFSSYAMSWVRQAPGKGLEWVSAISGGSGSTYYADSVKGRFTISRDNSKNTLYLQMNSLRAEDSAVYYCAKDGVGATPYYFDYWGQGTLVTVSS VL: QSVLTQPPSVSAAPGQKVTISCSGSSSNIGINYVSWYQQLPGTAPKLLIYDNNKRPSGIPDRFSGSKSGTSATLGITGLQTGDEADYYCGTWDSSLSAVVFGGGTKLTVL | 9.96e-12 | 4.23e-10 | 3.58e-11 | 1.52e-10 | – | –
3 | KL2B870 (antibody, human IgG1, kappa) heavy: not shown light: DIQMTQSPSFLSASVGDRVTITCRASQGISSYLAWYQQKPGKAPKFLIYAASTLQSGVPSRFSGSGSGTEFTLTISSLQPEDFATYYCQQLNSYPLTFGGGTKVEIKRTVAAPSVFIFPPSDEQLKSGTASVVCLLNNFYPREAKVQWKVDNALQSGNSQESVTEQDSKDSTYSLSSTLTLSKADYEKHKVYACEVTHQGLSSPVTKSFNRGEC | – | – | – | – | 1e-09 | ~73
4 | KL2B872.CLF (antibody, human IgG1, kappa) heavy: not shown light: DIQMTQSPSFLSASVGDRVTITCRASQGISSYLAWYQQKPGKAPKFLIYAASTLQSGVPSRFSGSGSGTEFTLTISSLQPEDFATYYCQQLNSYPLTFGGGTKVEIKRTVAAPSVFIFPPSDEQLKSGTASVVCLLNNFYPREAKVQWKVDNALQSGNSQESVTEQDSKDSTYSLSSTLTLSKADYEKHKVYACEVTHQGLSSPVTKSFNRGEC | – | – | – | – | 4.12e-10 | ~85
5 | KL2B870.CLF (antibody, human IgG1, kappa) heavy: not shown light: DIQMTQSPSFLSASVGDRVTITCRASQGISSYLAWYQQKPGKAPKFLIYAASTLQSGVPSRFSGSGSGTEFTLTISSLQPEDFATYYCQQLNSYPLTFGGGTKVEIKRTVAAPSVFIFPPSDEQLKSGTASVVCLLNNFYPREAKVQWKVDNALQSGNSQESVTEQDSKDSTYSLSSTLTLSKADYEKHKVYACEVTHQGLSSPVTKSFNRGEC | – | – | – | – | 3.54e-10 | ~89
